Measured values: patent US20250333541A1, “ANTIBODY, AND DRUG CONJUGATE AND USE THEREOF” (EVOPOINT BIOSCIENCES CO., LTD., priority 2022, published 2025)
Substitutions are numbered along the chain they refer to.

T1: cynomolgus monkey TF-His (cynomolgus monkey, UniProt A0A2K5VX02 33-253)
T1 construct: range 33-252; Recombinant extracellular segment expressed in HEK293-EBNA cells and purified on a nickel column; also called c.TF-His; c; TF-his; not shown: His tag from vector pTT5-His
T1 sequence: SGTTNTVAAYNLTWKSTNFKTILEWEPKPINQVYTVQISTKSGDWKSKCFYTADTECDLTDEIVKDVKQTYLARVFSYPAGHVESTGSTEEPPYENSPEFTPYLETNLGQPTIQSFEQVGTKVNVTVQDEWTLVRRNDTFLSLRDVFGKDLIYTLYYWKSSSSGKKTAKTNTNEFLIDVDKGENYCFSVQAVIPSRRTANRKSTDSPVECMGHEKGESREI

B1: 2B12B10-hz1 (antibody, human IgG1, kappa, V domains shown)
VH: EVQLVESGGGLVQPGGSLRLSCAASGFAFSDSGMHWVRQAPGKGLEWVAYISRDSNTIYYADSVKGRFTISRDNAKNSLYLQMNSLRAEDTAVYYCGRRYYGDYFDYWGQGTLVTVSS
VL: DIVLTQSPATLSLSPGERATLSCRASQRVTNYLHWYQQKPGQSPRLLIKYASQSISGIPARFSGSGSGTDFTLTISSLEPEDFAVYFCQQSYNWPLTFGQGTKVEIKR
notes: Humanized IgG1 kappa
B2: 30G11B7-hz1 (antibody, human IgG1, kappa, V domains shown)
VH: B1 VH with Q13K, A28T, S32Y, H35F, D54G, N56T, Y95F, G97T
VL: EIVLTQSPDFQSVTPKEKVTITCRASQSISNYLHWYQQKPDQSPKLLIKYASQSISGVPSRFSGSGSGTDFTLTINSLEAEDAATYFCQQSYNWPLTFGQGTKVEIKR
notes: Humanized IgG1 kappa
B3: 2B12B10-hz1-B81 (antibody, human IgG1, kappa, V domains shown)
VH: B1 VH
VL: B1 VL
modifications: drug-linker DL-01 (B81) on cysteine sulfhydryl group; prepared by the TF-ADC (DAR8) method (1 toxin molecule per light chain); drug-linker DL-01 (B81) on cysteine sulfhydryl groups; prepared by the TF-ADC (DAR8) method (3 toxin molecules per heavy chain)
notes: also called 2B12B10-B81
B4: 30G11B7-hz1-B81 (antibody, human IgG1, kappa, V domains shown)
VH: B1 VH with Q13K, A28T, S32Y, H35F, D54G, N56T, Y95F, G97T
VL: B2 VL
modifications: drug-linker DL-01 (B81) on cysteine sulfhydryl group; prepared by the TF-ADC (DAR8) method (1 toxin molecule per light chain); drug-linker DL-01 (B81) on cysteine sulfhydryl groups; prepared by the TF-ADC (DAR8) method (3 toxin molecules per heavy chain)
B5: 27H8H3-hz1-B81 (antibody, human IgG1, kappa, V domains shown)
VH: QVQLVQSGAEVKKPGASVKVSCKASGYTFTTYWMHWVRQAPGQGLEWMGMIDPSDSYTSYAQKFQGRVTLTVDTSTSTAYMELSSLRSEDTAVYYCTRGSGPGLFAYWGQGTLVTVSS
VL: DIQETQSPSSLSASVGDRVTITCRASQGISNYLNWYQQKPGKAPKLLIYHTSRLHSGVPSRFSGSVSGTDFTLTISSLQPEDFATYFCQQGNTLPYTFGQGTKVEIKR
modifications: drug-linker DL-01 (B81) on cysteine sulfhydryl group; prepared by the TF-ADC (DAR8) method (1 toxin molecule per light chain); drug-linker DL-01 (B81) on cysteine sulfhydryl groups; prepared by the TF-ADC (DAR8) method (3 toxin molecules per heavy chain)
B6: 22F11H5-hz1-B81 (antibody, human IgG1, kappa, V domains shown)
VH: B5 VH with K13Q, S59T, T97A
VL: B5 VL with G28D, S30R, H55Q, V66G, F71Y, F87Y, T93M, L94P
modifications: drug-linker DL-01 (B81) on cysteine sulfhydryl group; prepared by the TF-ADC (DAR8) method (1 toxin molecule per light chain); drug-linker DL-01 (B81) on cysteine sulfhydryl groups; prepared by the TF-ADC (DAR8) method (3 toxin molecules per heavy chain)

Legend:
human TF-His [1] = molecular target: T2, human TF-His (human, UniProt P13726 33-251); test: ELISA, plate coated with h.TF-His
T2 construct: range 33-251; Recombinant extracellular segment expressed in HEK293-EBNA cells and purified on a nickel column; also called h.TF-His; h; TF-his; not shown: His tag from vector pTT5-His
Method: (§1) The ELISA plate was coated overnight with TF antigen (h.TF-His or c.TF-His antigen) in 50 mM carbonate coating buffer (CBS coating solution) at a coating concentration of 1 μg/mL in a volume of 100 μL at 4° C. The next day, the coating solution was removed, each well was washed once with 300 μL of PBS, and 100 μL of 2% BSA (Biotopped, A6020) in PBS was added to each well for blocking at 37° C. for 2 h. The test sample was subjected to a gradient dilution with 2% BSA in PBS to establish 11 concentration points. 100 μL of each of the samples obtained by the gradient dilution was added to the plate, and the plate was incubated at 37° C. for 2 h. The supernatant was removed, and each well was washed three times with 300 μL of PBST. 100 μL of HRP-conjugated secondary antibody in 2% BSA was added to each well, and the plate was incubated at 37° C. for 1 h. […] At the end of the incubation, the secondary antibody was removed, each well was washed five times with 300 μL of PBST, and 100 μL of TMB substrate (Huzhou InnoReagents Co., Ltd., TMB-S-004) was added to each well for color development for 5-20 min. 50 μL of 2 N HCl was added to each well to stop the reaction, and OD450 nm values were read using a microplate reader (manufacturer: MD, model: SpectraMax) and imported into GraphPad software for fitting and plotting to determine the binding of the samples to TF antigenic proteins.
(§2) The assay was performed as described in the general methods. Briefly, an ELISA plate coated with a human TF-his protein or a cynomolgus monkey TF-his protein was blocked with 2% BSA at 37° C. for 2 h, and each of the antibodies obtained by the gradient dilution (starting at 10 μg/mL, 3-fold graded dilution, 11 concentration points) was added. The plate was incubated at 37° C. for 2 h.

[2] = molecular target: T3, tissue factor (TF) on the surface of TF-positive tumor cells (human, UniProt P13726 33-295); test: cell-based or functional assay
[3] = molecular target: T3, tissue factor (TF) on the surface of …; test: flow cytometry on KYSE520 cells
Method: (§3) A TF low/medium-expressing cell line NCI-H358 (source: Nanjing Cobioer, CBP60136) and a TF high-expressing cell line KYSE520 (source: Nanjing Cobioer, CBP60658) were digested with trypsin, collected by centrifugation, and washed three times with pre-cooled PBS. The cells were resuspended in 1% BSA and seeded into a 96-well sharp-bottom plate at 3×10⁵ cells/well. Each of the antibodies obtained by the gradient dilution was added, and the plate was incubated at 4° C. for 1 h. The cells were washed three times with pre-cooled PBS. 1 μL of anti-human fluorescent secondary antibody (APC anti-human IgG Fc Antibody, Biolegend, 410712) was added to each well, and the plate was incubated at 4° C. for 0.5 h. The cells were washed three times with pre-cooled PBS, resuspended, and detected by a flow cytometer (Sony, LE-SA3800GA). The data were imported into GraphPad software for curve fitting.

[4] = molecular target: T3, tissue factor (TF) on the surface of …; test: cell-based or functional assay; remark: listed apart in the source
human TF-His [5] = molecular target: T2, human TF-His; test: BLI (ForteBio Octet), antibody on ProA sensor, TF-His as analyte
Method: (§4) The dynamic affinity of the humanized antibodies was determined by ForteBio. The experimental procedures were as follows: a ProA sensor (18-5010, Octet) was taken out and pre-wetted with a PBST diluent (pH 7.4) for 10 min. The antibodies to be immobilized were diluted to 5 μg/mL. […] The program was set up, the sensor plate and sample plate were put in, then the program started. The sensor was regenerated with 20 mM glycine solution (pH 1.7). The data were analyzed using Octet analysis software to derive a result graph.

cynomolgus monkey TF-His [6] = molecular target: T1, cynomolgus monkey TF-His; test: as above
Method: as §4

[7] = molecular target: T3, tissue factor (TF) on the surface of …; test: flow cytometry on NCI-H358 cells
Method: as §3

[8] = molecular target: T3, tissue factor (TF) on the surface of …; test: cell ELISA on fixed NCI-H358 cells
Method: TF antigen-positive cells (MDA-MB-231 or NCI-H358 cells) were seeded into a 96-well plate at 5×10⁴ cells/well one day prior to the experiment. On the day of the experiment, the culture supernatant was removed, each well was washed once with 300 μL of PBS, and 100 μL of 4% paraformaldehyde was added to each well for immobilization at room temperature for 20 min. The paraformaldehyde was removed, and each well was washed twice with 300 μL of PBS, and 100 μL of 2% BSA in PBS was added to each well for blocking at 37° C. for 2 h. After the blocking was completed, 30 μL of the test sample (hybridoma supernatant or purified antibody) was added to each well and the plate was incubated at 37° C. for 2 h. The liquid was removed, and each well was washed three times with 300 μL of PBST. 100 μL of HRP-conjugated secondary antibody in 2% BSA was added to each well, and the plate was incubated at 37° C. for 1 h. […] The secondary antibody was removed, each well was washed five times with 300 μL of PBST, and 100 μL of TMB substrate (Huzhou InnoReagents Co., Ltd., TMB-S-004) was added to each well for color development for 5-20 min. 50 μL of 2 N HCl was added to each well to stop the reaction, and OD450 nm values were read using a microplate reader (manufacturer: MD, model: SpectraMax) to determine the binding of the samples to TF-positive cells.
The assay was performed as described in the general methods. Briefly, TF antigen-positive NCI-H358 cells were digested with trypsin, collected, seeded into a 96-well plate at 5×10⁴ cells/well and incubated overnight, and then immobilized with 4% paraformaldehyde. After the paraformaldehyde was removed and the cells were washed with PBS, the plate was blocked with 2% BSA at 37° C. for 2 h. Each of the antibodies obtained by the gradient dilution (starting at 10 μg/mL, 3-fold graded dilution, 11 concentration points) was added. The plate was incubated at 37° C. for 2 h.

cynomolgus monkey TF-His [9] = molecular target: T1, cynomolgus monkey TF-His; test: ELISA, plate coated with c.TF-His
Method: as §1, §2

human TF-His [10] = molecular target: T2, human TF-His; test: antigenic protein-based ELISA, before conjugation (TF antigen species not stated)
Method: as §1

[11] = molecular target: T3, tissue factor (TF) on the surface of …; test: cell-based or functional assay; remark: listed apart in the source
human TF-His [12] = molecular target: T2, human TF-His; test: antigenic protein-based ELISA, after conjugation with B81 (TF antigen species not stated)
Method: as §1

Row | Binder | EC50 (human TF-His [1]) | coagulation time V50 (s), MDA-MB-231 cells + human plasma, 2 mM Ca2+, 50 µg/mL antibody [2] | coagulation time V50 (s), MDA-MB-231 cells + human plasma, 5 mM Ca2+, 20 µg/mL antibody [2] | EC50 [3] | IC50 (ng/mL), inhibition of FVIIa-induced IL-8 release by MDA-MB-231 cells [4] | Maximum inhibition rate (%), FVIIa-induced IL-8 release by MDA-MB-231 cells [4] | Kd (human TF-His [5]) | koff (human TF-His [5]) | kon (human TF-His [5]) | Kd (cynomolgus monkey TF-His [6]) | koff (cynomolgus monkey TF-His [6]) | kon (cynomolgus monkey TF-His [6]) | EC50 [7] | EC50 [8] | EC50 (cynomolgus monkey TF-His [9]) | EC50 (human TF-His [10]) | Endocytosis rate (%) on NCI-H358 cells, 2 h [11] | Endocytosis rate (%) on NCI-H358 cells, 4 h [11] | EC50 (human TF-His [12])
1 | B1 | 6.72 ng/mL | 882 s | 24.2 s | 140 ng/mL | 128 ng/mL | 94.1% | 13.8 nM | 0.00289 s⁻¹ | 209000 M⁻¹ s⁻¹ | 33.8 nM | 0.0116 s⁻¹ | 344000 M⁻¹ s⁻¹ | 187 ng/mL | 3.88 ng/mL | 13.6 ng/mL | 6.65 ng/mL | 34.3% | 49.6% | 
2 | B2 | 7.91 ng/mL | 1450 s | 29.2 s | 138 ng/mL | 129 ng/mL | 100% | 25.8 nM | 0.00506 s⁻¹ | 197000 M⁻¹ s⁻¹ | 146 nM | 0.053 s⁻¹ | 364000 M⁻¹ s⁻¹ | 145 ng/mL | 4.73 ng/mL | 20.8 ng/mL | 7.68 ng/mL | 19.8% | 46.1% | 
3 | B3 |  |  |  |  |  |  |  |  |  |  |  |  |  |  |  |  |  |  | 3.76 ng/mL
4 | B4 |  |  |  |  |  |  |  |  |  |  |  |  |  |  |  |  |  |  | 7.75 ng/mL
5 | B5 |  |  |  |  |  |  |  |  |  |  |  |  |  |  |  |  |  |  | 3.43 ng/mL
6 | B6 |  |  |  |  |  |  |  |  |  |  |  |  |  |  |  |  |  |  | 8.83 ng/mL
